This passage reports protein stability index results from the supplement of paper PMC10567573.

First the molecules themselves.
B1: NECAB1 (parent)
chain: NLDTEELCEYFSQHLGEYENVLAA
B2: KRT18 (parent)
chain: KSQDLAKIMADIRAQYDELARKNR
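Also: lentivirally expressed fusions sorted by FACS into six bins by GFP to DsRed ratio, PSI derived from sequencing read proportions per bin multiplied by bin number.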

The first data set covers variants of B1. In words: protein stability index of a GFP-peptide fusion (GPS, HEK-293T) (PSI 1-6); higher = more stable. As to conditions: c terminus: a fixed tail appended.
Turning to NLDTEELCEYFSQHLGEYENVQAA [L22Q], the protein stability index turned out to be 4.36.

With NLDTEELCEYFSQHLGEYENVVAA [L22V], the protein stability index worked out at 3.26.

Take NLDTEELCEYFSQHLGEYENVGAA [L22G]: the protein stability index came to 4.3.

As for NLDTEELCEYFSQHLGEYENVAAA [L22A], the protein stability index amounted to 4.35.

For NLDTEELCEYFSQHLGEYENVPAA [L22P], the protein stability index turned out to be 4.25.

As for NLDTEELCEYFSQHLGEYECVLAA [N20C], the protein stability index was 2.05.

Consider NLDTEELCEYFSQHLGEYEYVLAA [N20Y], for which the protein stability index came to 3.07.

The next data set covers variants of B2. The description is as above. As to conditions: c terminus: a fixed tail appended.
As for KSQDLAKIMADIRAQYDELARVNR [K22V], the protein stability index came out at 2.23.

As to KSQDLAKIMADIRAQYDELARENR [K22E], the protein stability index was found to be 3.04.

Take KSQDLAKIMADIRAQYDELARYNR [K22Y]: the protein stability index came to 2.29.

For KSQDLAKIMADIRAQYDELARNNR [K22N], the protein stability index stood at 2.7.

Consider KSQDLAKIMADIRAQYDELARTNR [K22T], for which the protein stability index turned out to be 2.45.

Regarding KSQDLAKIMADIRAQYDELARGNR [K22G], the protein stability index is 3.04.

Regarding KSQDLAKIMADIRAQYDELARDNR [K22D], the protein stability index came out at 3.35.

As for KSQDLAKIMADIRAQYDELARFNR [K22F], the protein stability index is 2.43.

On to KSQDLAKIMADIRAQYDELARRNR [K22R], for which the protein stability index stood at 2.79.

On to KSQDLAKIMADIRAQYDELARCNR [K22C], for which the protein stability index is 2.32.

With KSQDLAKIMADIRAQYDELARINR [K22I], the protein stability index worked out at 1.89.

In the case of KSQDLAKIMADIRAQYDELARQNR [K22Q], the protein stability index is 2.92.

Consider KSQDLAKIMADIRAQYDELARHNR [K22H], for which the protein stability index worked out at 3.1.

With KSQDLAKIMADIRAQYDELARSNR [K22S], the protein stability index is 2.88.

As for KSQDLAKIMADIRAQYDELARPNR [K22P], the protein stability index came out at 2.85.

For the variant KSQDLAKIMADIRAQYDELARWNR [K22W], the protein stability index came to 1.88.

In the case of KSQDLAKIMADIRAQYDELARMNR [K22M], the protein stability index stood at 2.44.

Consider KSQDLAKIMADIRAQYDELARLNR [K22L], for which the protein stability index amounted to 2.43.

In the case of KSQDLAKIMADIRAQYDELARANR [K22A], the protein stability index turned out to be 2.67.

On to KSQDLAKIMADIRAQYDELASKNR [R21S], for which the protein stability index was found to be 2.95.

In the case of KSQDLAKIMADIRAQYDELAQKNR [R21Q], the protein stability index was 2.59.

With KSQDLAKIMADIRAQYDELAYKNR [R21Y], the protein stability index amounted to 2.65.

With KSQDLAKIMADIRAQYDELAWKNR [R21W], the protein stability index worked out at 2.47.

KSQDLAKIMADIRAQYDELANKNR [R21N]: the protein stability index turned out to be 2.96.

KSQDLAKIMADIRAQYDELADKNR [R21D]: the protein stability index stood at 2.36.

Regarding KSQDLAKIMADIRAQYDELAFKNR [R21F], the protein stability index worked out at 2.39.

With KSQDLAKIMADIRAQYDELAEKNR [R21E], the protein stability index came to 2.14.

As to KSQDLAKIMADIRAQYDELAGKNR [R21G], the protein stability index was 3.2.

For KSQDLAKIMADIRAQYDELALKNR [R21L], the protein stability index is 2.5.

KSQDLAKIMADIRAQYDELACKNR [R21C]: the protein stability index came to 2.68.

Consider KSQDLAKIMADIRAQYDELAIKNR [R21I], for which the protein stability index amounted to 3.24.

On to KSQDLAKIMADIRAQYDELAHKNR [R21H], for which the protein stability index stood at 3.26.

For the variant KSQDLAKIMADIRAQYDELATKNR [R21T], the protein stability index came out at 2.83.

Regarding KSQDLAKIMADIRAQYDELAPKNR [R21P], the protein stability index worked out at 3.55.

Turning to KSQDLAKIMADIRAQYDELAAKNR [R21A], the protein stability index stood at 3.1.

As for KSQDLAKIMADIRAQYDELAKKNR [R21K], the protein stability index was found to be 2.9.

For KSQDLAKIMADIRAQYDELAVKNR [R21V], the protein stability index was determined as 1.91.

For KSQDLAKIMADIRAQYDELAMKNR [R21M], the protein stability index turned out to be 2.83.

In the case of KSQDLAKIMADIRAQYDELNRKNR [A20N], the protein stability index amounted to 2.93.

As to KSQDLAKIMADIRAQYDELYRKNR [A20Y], the protein stability index was determined as 1.71.

For KSQDLAKIMADIRAQYDELQRKNR [A20Q], the protein stability index is 2.94.

KSQDLAKIMADIRAQYDELMRKNR [A20M]: the protein stability index worked out at 2.51.

KSQDLAKIMADIRAQYDELSRKNR [A20S]: the protein stability index worked out at 2.87.

Turning to KSQDLAKIMADIRAQYDELWRKNR [A20W], the protein stability index came out at 1.67.

Regarding KSQDLAKIMADIRAQYDELTRKNR [A20T], the protein stability index was found to be 2.52.

Take KSQDLAKIMADIRAQYDELPRKNR [A20P]: the protein stability index amounted to 2.98.

With KSQDLAKIMADIRAQYDELRRKNR [A20R], the protein stability index turned out to be 3.09.

With KSQDLAKIMADIRAQYDELVRKNR [A20V], the protein stability index was 2.85.

KSQDLAKIMADIRAQYDELLRKNR [A20L]: the protein stability index came out at 2.03.

With KSQDLAKIMADIRAQYDELARKNK [R24K], the protein stability index worked out at 3.46.

As for KSQDLAKIMADIRAQYDELARKNG [R24G], the protein stability index is 3.57.

In the case of KSQDLAKIMADIRAQYDELARKNI [R24I], the protein stability index worked out at 2.1.

Turning to KSQDLAKIMADIRAQYDELARKND [R24D], the protein stability index is 3.81.

Regarding KSQDLAKIMADIRAQYDELARKNP [R24P], the protein stability index is 3.16.

Consider KSQDLAKIMADIRAQYDELARKNA [R24A], for which the protein stability index came to 3.33.

On to KSQDLAKIMADIRAQYDELARKNF [R24F], for which the protein stability index stood at 2.79.

For KSQDLAKIMADIRAQYDELARKNT [R24T], the protein stability index was found to be 3.13.

Consider KSQDLAKIMADIRAQYDELARKNS [R24S], for which the protein stability index stood at 2.61.

As for KSQDLAKIMADIRAQYDELARKNM [R24M], the protein stability index amounted to 3.07.

Take KSQDLAKIMADIRAQYDELARKNN [R24N]: the protein stability index stood at 3.13.

As to KSQDLAKIMADIRAQYDELARKNY [R24Y], the protein stability index was 2.01.

For KSQDLAKIMADIRAQYDELARKNH [R24H], the protein stability index came to 2.81.

Take KSQDLAKIMADIRAQYDELARKNL [R24L]: the protein stability index stood at 1.69.

As for KSQDLAKIMADIRAQYDELARKNQ [R24Q], the protein stability index was 2.95.

Take KSQDLAKIMADIRAQYDELARKNC [R24C]: the protein stability index turned out to be 1.92.

Turning to KSQDLAKIMADIRAQYDELARKNW [R24W], the protein stability index was 2.13.

Turning to KSQDLAKIMADIRAQYDELARKNV [R24V], the protein stability index was 2.57.

Consider KSQDLAKIMADIRAQYDELARKNE [R24E], for which the protein stability index was determined as 3.17.

On to KSQDLAKIMADIRAQYDELARKCR [N23C], for which the protein stability index turned out to be 3.06.

KSQDLAKIMADIRAQYDELARKMR [N23M]: the protein stability index was determined as 2.02.

For KSQDLAKIMADIRAQYDELARKFR [N23F], the protein stability index worked out at 2.07.

In the case of KSQDLAKIMADIRAQYDELARKGR [N23G], the protein stability index was found to be 2.61.

Take KSQDLAKIMADIRAQYDELARKKR [N23K]: the protein stability index was 2.87.

For KSQDLAKIMADIRAQYDELARKAR [N23A], the protein stability index was found to be 2.9.

On to KSQDLAKIMADIRAQYDELARKLR [N23L], for which the protein stability index is 2.51.

Regarding KSQDLAKIMADIRAQYDELARKDR [N23D], the protein stability index is 3.86.

With KSQDLAKIMADIRAQYDELARKYR [N23Y], the protein stability index worked out at 1.94.

As to KSQDLAKIMADIRAQYDELARKER [N23E], the protein stability index came out at 3.83.

For KSQDLAKIMADIRAQYDELARKSR [N23S], the protein stability index was 3.29.

Turning to KSQDLAKIMADIRAQYDELARKTR [N23T], the protein stability index worked out at 2.88.

With KSQDLAKIMADIRAQYDELARKRR [N23R], the protein stability index was 2.5.

KSQDLAKIMADIRAQYDELARKIR [N23I]: the protein stability index was determined as 2.58.

Regarding KSQDLAKIMADIRAQYDELARKHR [N23H], the protein stability index came out at 2.56.

For KSQDLAKIMADIRAQYDELARKWR [N23W], the protein stability index was 2.33.

Turning to KSQDLAKIMADIRAQYDELARKVR [N23V], the protein stability index is 3.04.

As to KSQDLAKIMADIRAQYDELARKQR [N23Q], the protein stability index is 2.65.

KSQDLAKIMADIRAQYDELARKPR [N23P]: the protein stability index turned out to be 3.52.
